The source of these data is article PMC1479692, “The PLAC1-homology region of the ZP domain is sufficient for protein polymerisation” (BMC Biochemistry, 2006).

This series deals with the molecule itself. The experiment in a line: SEC; purified MBP-ZP-N-6his on Sephacryl S-300 HR (FPLC) and Bio-Sil SEC-250-5 (HPLC) columns, ~300 kDa Mr cut-off; buffer F (10 mM Na-HEPES pH 8.0, 100 mM NaCl, 1 mM maltose, 1 mM NaN3); also with 10 mM DTT, and after pre-incubation with 10 mM EDTA. On the technique in general: In gel filtration, larger molecules generally elute earlier.

B1: MBP-ZP-N-6his fusion protein (PLAC1-homology region, ZP-N, of the ZP domain of mouse ZP3) (domain or fragment, UniProt P10761 42-143, looked up)
chain: VKVECLEAELVVTVSRDLFGTGKLVQPGDLTLGSEGCQPRVSVDTDVVRFNAQLHECSSRVQMTKDALVYSTFLLHDPRPVSGLSILRTNRVEVPIECRYPR
modifications: intramolecular disulfides Cys 46-Cys 139 and Cys 78-Cys 98 (ZP3 numbering)
notes: mouse ZP3 (zona pellucida sperm receptor), aa 42-143, the 102-amino acid ZP-N fragment; The assay buffer contained 1 mM maltose; also called recombinant ZP-N; ZP-N fragment; source: E. coli Origami B (DE3) (trxB gor), co-expressing ΔSSdsbC and TrxA(G33P, P34Y); purified (Ni2+ HiTrap Chelating HP, amylose resin, Mono Q); not shown: His6 (LEH6), C-terminal, kept
With B1, the binding result is listed as “binds”.
